Data published in patent US10568344B2, “Methods of improving animal performance” (Novozymes A/S, priority 2015, dated 2020).
Where two headings read alike, the source gives them in different places. Marks after values point to notes of the source that are not given here.

Legend:
[1] = tested on: Exiguobacterium undae (DSM14481); test: Lysozyme activity turbidity assay (optical density drop); format: biochemical; settings: pH 6
[2] = tested on: Clostridium perfringens DSM756; format: cell-based; settings: for Diameter of clearing zone: lysozymes 100 μg/ml, bacitracin 50 μg/ml
[3] = In vivo broiler trial 3, growth performance; parameters: species or system male broiler chickens; Motality: unit not given here
Procedure: The in vivo trial was carried out as described in example 7, except the feed was supplemented with the GH25 lysozyme (SEQ ID NO: 1) at 12.5 or 25 mg per kg feed, the GH24 lysozyme (SEQ ID NO: 4) at 12.5 or 25 mg per kg feed or with Avilamycin at an inclusion level of 10 mg/kg. No additional enzymes (e.g. phytase) were added to the feed. The experimental diets (Starter, Grower and Finisher) were based on soybean meal, wheat and rye (12%) as main ingredients (Table 8). The diets were formulated to contain 225 g crude protein and 12.5 MJ/kg MEN for the starter period, 215 g crude protein and 12.8 MJ/kg MEN for the grower period and 205 g crude protein and 13.0 MJ/kg MEN for the finisher period.

[4] = In vivo piglet trial, growth performance; parameters: species or system weaned piglets
Procedure: The trial was performed from Oct. 23 to Dec. 4, 2014 at the Research Center for Animal Nutrition (DSM Nutritional Products France, F-68305 Village-Neuf) according to the official French guidelines for experiments with live animals. One hundred and four castrated male crossbred (Large-White (female)×Redon (male)) weaned piglets having 28 days of age supplied by the commercial farm “[…] du Rhin” located in Balgau (France), were used in a 42-day experiment. The initial bodyweight of the piglets was 7.88±0.675 kg. They were sorted by body weight into 32 groups of 3 or 4 piglets and randomly allotted to each dietary treatment. Each group of animals was placed in one flat-deck cages and allocated to one of the different treatments. Each treatment was replicated with 8 cages using a total of 26 animals (6 cages of 3 animals/treatment and 2 cages of 4 animals/treatment) per treatment. […] Animals were housed in an environmentally controlled room. Room temperature was initially 27° C. and was lowered weekly by about 2° C. until 21-22° C. and relative humidity percentage was 50%. The experimental diets (Pre-Starter and Starter) were fed ad libitum in two feeding phases from day 0 to 14 (phase 1, Pre-starter) and day 14 to 42 (phase 2, Starter). The ingredient composition and the calculated nutrient levels of the experimental diets for phases 1 and 2 are presented in table 11. Both diets were formulated to meet the animals' requirements according NRC (2012) and were fed in pelleted form. Pelleting conditions were at 70° C. for 30 seconds. […] No additional enzymes (e.g. phytase) were added to the feed. […] Appropriate amount of the liquid preparations of lysozyme was diluted in water and sprayed onto the respective pelleted feed to get the final concentrations in the feed corresponding to the different treatments. For procedural balance of all treatments the same volume of water were also sprayed onto the pellets of the control diets. Body weight of the individual animals and feed consumption per pen were recorded on days 14 and 42 of the study. […] The experimental unit was the piglet, except for ADFI and FCR which were measured by cage, and in both cases, treatment was used as class variable. One-factorial ANOVA and Student-Newman-Keuls test was used to assess differences among means in treatment groups.

[5] = tested on: Micrococcus lysodeikticus ATTC No. 4698; test: Lysozyme activity turbidity assay (optical density drop); settings: pH 6
[6] = Finisher (d 36-42), 12.5 mg/kg feed
[7] = Finisher (d 36-42), 25 mg/kg feed
[8] = Grower (d 22-36), 12.5 mg/kg feed
[9] = Grower (d 22-36), 25 mg/kg feed
[10] = Starter (d 1-22), 12.5 mg/kg feed
[11] = Starter (d 1-22), 25 mg/kg feed
[12] = Whole period (d 1-42), 12.5 mg/kg feed
[13] = Whole period (d 1-42), 25 mg/kg feed

B1: SEQ ID NO: 4: mature amino acid sequence of a wild type GH24 lysozyme from Trichophaea saccata (protein, listed as Trichophaea saccata)
chain: YPVKTDLHCRSSPSTSASIVRTYSSGTEVQIQCQTTGTSVQGSNVWDKTQHGCYVADYYVKTGHSGIFTTKCGSSSGGGSCKPPPINAATVALIKEFEGFVPKPAPDPIGLPTVGYGHLCKTKGCKEVPYSFPLTQETATKLLQSDIKTFTSCVSNYVKDSVKLNDNQYGALASWAFNVGCGNVQTSSLIKRLNAGENPNTVAAQELPKWKYAGGKVMPGLVRRRNAEVALFKKPSSVQAHPPKC
modifications: mat_peptide (1)..(245)
Lysozyme activity as measured by Optical Density Drop [1]: ++ (pH 6)
Diameter of clearing zone ([2]; Experiment 1, 1/2 MHB pH 6): 11 mm
Diameter of clearing zone ([2]; Experiment 1, 1/10 MHB pH 7): 9 mm
Diameter of clearing zone ([2]; Experiment 2, 1/2 MHB pH 6): 10 mm
Diameter of clearing zone ([2]; Experiment 2, 1/10 MHB pH 7): 8 mm
Zones around the wells challenged with the enzyme ([2]; both conditions tested (1/10 MHB pH 7 and ½ MHB pH 6)): 8-11 mm
Benefit over the NC diet ([3]; 12.5 mg/kg): did not show any benefit
FCR [3, 6]: 1.969
FCR, Relative to C (%) [3, 6]: 100.4%
Feed intake [3, 6]: 1560 g/b
Feed intake, Relative to C (%) [3, 6]: 104.8%
Weight gain [3, 6]: 795 g/b
Weight gain, Relative to C (%) [3, 6]: 104.4%
FCR [3, 7]: 1.919
FCR, Relative to C (%) [3, 7]: 97.9%
Feed intake [3, 7]: 1524 g/b
Feed intake, Relative to C (%) [3, 7]: 102.5%
Weight gain [3, 7]: 800 g/b
Weight gain, Relative to C (%) [3, 7]: 105.1%
FCR [3, 8]: 1.692
FCR, Relative to C (%) [3, 8]: 98.2%
Feed intake [3, 8]: 2298 g/b
Feed intake, Relative to C (%) [3, 8]: 100.5%
Weight gain [3, 8]: 1359 g/b
Weight gain, Relative to C (%) [3, 8]: 102.4%
FCR [3, 9]: 1.714
FCR, Relative to C (%) [3, 9]: 99.5%
Feed intake [3, 9]: 2336 g/b
Feed intake, Relative to C (%) [3, 9]: 102.2%
Weight gain [3, 9]: 1364 g/b
Weight gain, Relative to C (%) [3, 9]: 102.7%
FCR [3, 10]: 1.469
FCR, Relative to C (%) [3, 10]: 102.0%
Feed intake [3, 10]: 1608 g/b
Feed intake, Relative to C (%) [3, 10]: 101.9%
Weight gain [3, 10]: 1095 g/b
Weight gain, Relative to C (%) [3, 10]: 99.9%
FCR [3, 11]: 1.414
FCR, Relative to C (%) [3, 11]: 98.1%
Feed intake [3, 11]: 1603 g/b
Feed intake, Relative to C (%) [3, 11]: 101.6%
Weight gain [3, 11]: 1133 g/b
Weight gain, Relative to C (%) [3, 11]: 103.4%
EPEF [3, 12]: 408
EPEF, Relative to C (%) [3, 12]: 97.6%
FCR [3, 12]: 1.683
FCR, Relative to C (%) [3, 12]: 100.2%
Feed intake [3, 12]: 5466 g/b
Feed intake, Relative to C (%) [3, 12]: 102.1%
Motality [3, 12]: 11.3
Weight gain [3, 12]: 3249 g/b
Weight gain, Relative to C (%) [3, 12]: 102.0%
EPEF [3, 13]: 425
EPEF, Relative to C (%) [3, 13]: 101.7%
FCR [3, 13]: 1.657
FCR, Relative to C (%) [3, 13]: 98.6%
Feed intake [3, 13]: 5450 g/b
Feed intake, Relative to C (%) [3, 13]: 101.9%
Motality [3, 13]: 10.0
Weight gain [3, 13]: 3290 g/b
Weight gain, Relative to C (%) [3, 13]: 103.3%
EPEF improvement compared to NC diet ([3]; whole period, 25 mg/kg): 2.4%
FCR improvement compared to NC diet ([3]; whole period, 25 mg/kg): 1.2%
ADFI, % relative NC ([4]; day 0-14, 50 ppm): 92.5%
ADFI, Mean ([4]; day 0-14, 50 ppm): 333 g/day
ADWG, % relative NC ([4]; day 0-14, 50 ppm): 91.4%
ADWG, Mean ([4]; day 0-14, 50 ppm): 265 g/day
FCR, % relative NC ([4]; day 0-14, 50 ppm): 102.6%
FCR, Mean ([4]; day 0-14, 50 ppm): 1.272^b
ADFI, % relative NC ([4]; day 0-42, 50 ppm): 100.8%
ADFI, Mean ([4]; day 0-42, 50 ppm): 740^b g/d
ADWG, % relative NC ([4]; day 0-42, 50 ppm): 107.8%
ADWG, Mean ([4]; day 0-42, 50 ppm): 538 g/day
EPEF, % relative NC ([4]; day 0-42, 50 ppm): 115.3%
EPEF, Mean ([4]; day 0-42, 50 ppm): 391
FCR, % relative NC ([4]; day 0-42, 50 ppm): 92.9%
FCR, Mean ([4]; day 0-42, 50 ppm): 1.379^a
ADFI, % relative NC ([4]; day 14-42, 50 ppm): 101.5%
ADFI, Mean ([4]; day 14-42, 50 ppm): 944^c g/d
ADWG, % relative NC ([4]; day 14-42, 50 ppm): 111.8%
ADWG, Mean ([4]; day 14-42, 50 ppm): 674 g/day
FCR, % relative NC ([4]; day 14-42, 50 ppm): 90.9%
FCR, Mean ([4]; day 14-42, 50 ppm): 1.404^a
Improvement on FCR compared to the negative control ([4]; overall period (day 0 to day 42), 50 mg/kg): 7.1%
Improvement to FCR compared to NC ([4]; starter period, day 15 to day 42, 50 mg/kg): 9.1%
Improvement of ADWG compared to the negative control diet ([4]; starter period, 50 mg/kg): 11.8%
EPEF improvement compared to the negative control ([4]; whole period, 50 mg/kg): 15.3%
Improvement of ADWG compared to the negative control diet ([4]; whole period, 50 mg/kg): 7.8%
Lysozyme activity as measured by Optical Density Drop [5]: ++ (pH 6)
